Experiments:
BSA = BSA (UniProt P02769 25-607); assay: ELISA, 100 ng target on plate, detected with anti-scytovirin rabbit polyclonal
sCD4 = target: T1, sCD4 (UniProt P01730 26-394); assay: as above
T1 construct: Printed only as sCD4 (soluble CD4)

human serum albumin = target: T2, human serum albumin (human, UniProt P02768 25-609); assay: as above
T2 construct: also called HSA; HAS

[1] = target: T3, glycosylated gp120 (HIV-1SF2 gp120) (HIV-1 SF2, UniProt P03378 32-509, limits assumed, glycosylated); assay: ELISA, glycosylated and nonglycosylated HIV-1SF2 gp120 on plate, serial dilutions of scytovirin
T3 construct: domain: gp120

Chain of BSA (P02769 25-607 limits assumed): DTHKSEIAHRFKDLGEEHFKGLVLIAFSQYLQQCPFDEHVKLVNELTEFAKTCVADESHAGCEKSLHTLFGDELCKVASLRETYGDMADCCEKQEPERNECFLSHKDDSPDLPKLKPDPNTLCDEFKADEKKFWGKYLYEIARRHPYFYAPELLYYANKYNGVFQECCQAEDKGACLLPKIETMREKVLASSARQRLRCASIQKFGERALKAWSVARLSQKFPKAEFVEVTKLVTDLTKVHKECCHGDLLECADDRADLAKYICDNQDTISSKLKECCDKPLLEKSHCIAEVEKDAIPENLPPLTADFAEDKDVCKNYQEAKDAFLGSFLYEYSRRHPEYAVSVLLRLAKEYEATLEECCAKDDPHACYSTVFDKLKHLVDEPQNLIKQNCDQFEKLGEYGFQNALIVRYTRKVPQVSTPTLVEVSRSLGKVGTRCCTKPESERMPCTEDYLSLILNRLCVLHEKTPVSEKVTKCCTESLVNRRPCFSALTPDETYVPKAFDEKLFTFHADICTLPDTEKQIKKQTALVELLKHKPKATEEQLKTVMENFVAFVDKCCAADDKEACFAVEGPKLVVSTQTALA
T2 sequence (P02768 25-609 limits assumed): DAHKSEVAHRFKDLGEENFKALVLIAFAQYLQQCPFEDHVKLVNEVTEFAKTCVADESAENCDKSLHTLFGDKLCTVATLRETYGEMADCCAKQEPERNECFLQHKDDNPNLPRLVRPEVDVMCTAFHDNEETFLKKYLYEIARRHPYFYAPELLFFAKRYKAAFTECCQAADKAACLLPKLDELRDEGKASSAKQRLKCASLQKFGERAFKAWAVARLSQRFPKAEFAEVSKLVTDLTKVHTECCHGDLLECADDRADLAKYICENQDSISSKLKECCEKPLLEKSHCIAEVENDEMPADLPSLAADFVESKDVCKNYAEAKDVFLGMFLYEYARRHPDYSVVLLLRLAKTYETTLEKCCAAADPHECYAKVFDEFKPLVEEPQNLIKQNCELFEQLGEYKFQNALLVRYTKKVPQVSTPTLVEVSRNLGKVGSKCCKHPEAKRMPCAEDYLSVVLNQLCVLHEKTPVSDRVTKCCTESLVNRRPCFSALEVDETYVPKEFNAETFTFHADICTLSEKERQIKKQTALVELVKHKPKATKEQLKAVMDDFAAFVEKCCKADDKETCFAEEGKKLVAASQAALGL

B1: scytovirin (other)
chain: GSGPTYCWNEANNPGGPNRCSNNKQCDGARTCSSSGFCQGTSRKPDPGPKGPTYCWDEAKNPGGPNRCSNSKQCDGARTCSSSGFCQGTAGHAAA
notes: Natural protein purified from an aqueous extract of cultured Scytonema varium; It has 95 residues, weighs 9,713 Da and has five intrachain disulfides (Cys20-Cys26, Cys32-Cys38, Cys68-Cys74, Cys80-Cys86, Cys7-Cys55); also called wild-type scytovirin; natural scytovirin
binding result (BSA): no binding (tested: 100 ng of scytovirin) | binding result (sCD4): no binding (tested: 100 ng of scytovirin) | binding result (human serum albumin): no binding (tested: 100 ng of scytovirin) | binding result [1]: binds

Reference: patent publication US20050084496A1 (GOVERNMENT OF THE UNITED STATES OF AMERICA REP BY THE SECR …, published 2005)
